Reference: patent US5747329

Target: heavy subunit of rat kidney gamma-glutamylcysteine synthetase (rat)

Apparent Km for glutamate (mM), co-expressed recombinant holoenzyme: 1.8 mM
Apparent Km for glutamate (mM), recombinant holoenzyme made by mixing the separately expressed subunits: 2.8 mM
Substance: light subunit of rat kidney gamma-glutamylcysteine synthetase (enzyme)
